In publication PMC3299299, “Recombinant Expression and Characterization of Human and Murine ACE2: Species-Specific Activation of the Alternative Renin-Angiotensin-System” (International Journal of Hypertension, 2012):

Assays:
Assay type in all cases: biochemical
[1] = system: human RAS in blood plasma; test: Ex vivo incubation of renin-spiked human plasma, RAS-Fingerprinting by LC-MS/MS; conditions: human plasma + 100 pg/mL recombinant human renin, 10 μM Lisinopril present, without or with 5 μg/mL enzyme, 10 min 37°C (Fig 3b); 0 = below quantification limit (2 pg/mL plasma)
Protocol: Anticoagulated blood was collected from healthy volunteers, and plasma was separated by 10 minutes centrifugation at 3000 RCF. […] After 10 minutes of incubation at 37°C, in the presence or absence of Lisinopril (Sigma), samples were chilled on ice and immediately subjected to LC-MS/MS analysis.
Plasma samples were spiked with 100 pg/mL stable-isotope-labeled internal standards and subjected to solid-phase extraction using Sep-Pak cartridges (Waters) according to manufacturers protocol. Following elution and solvent evaporation, samples were reconstituted in 50 μL 50% acetonitrile/0.1% formic acid and subjected to LC-MS/MS analysis using a reversed-phase analytical column (Luna C18, Phenomenex) using a gradient ranging from 10% acetonitrile/0.1% formic acid to 70% acetonitrile/0.1% formic acid in 9 minutes. The eluate was analyzed in line with a QTRAP-4000 mass spectrometer (AB Sciex) operated in the MRM mode using dwell times of 25 msec at a cone voltage of 4000 volts and a source temperature of 300°C. For each peptide and corresponding internal standards, two different mass transitions were measured. Angiotensin peptide concentrations were calculated by relating endogenous peptide signals to internal standard signals provided that integrated signals achieved a signal-to-noise ratio above 10.
RAS-Fingerprints were measured by LC-MS/MS as indicated in Section 2. Samples were incubated in the absence (a) or presence (b) of 10 μM of the ACE inhibitor Lisinopril. In this figure, the diameter of the spheres reflects the concentration of the respective peptide metabolite, which is also given in pg/mL next to each individual sphere. 0 pg/mL indicates concentrations below quantification limits, which are defined by a signal-to-noise ratio below 10. Furthermore, the amino acid sequence of each angiotensin metabolite is schematically given in brackets beside the corresponding sphere. The sequence annotation is based on the decapeptide Angiotensin I (1–10) which is N- or C-terminally cleaved by the indicated proteases. […]

Ang 1–10 = test: In vitro kinetic assay, Ang 1–10 cleavage to Ang 1–9, HPLC quantification
Protocol: (§1) Enzyme reactions were started by adding a defined amount of enzyme to substrate dilutions in MES-buffer (50 mM MES, 300 mM NaCl, 10 μM ZnCl2, 0.01% Brij-35, pH 6.5) which were previously equilibrated at 37°C. Aliquots of the reaction mixes were taken every 10 minutes and stopped by addition of 0.5 M EDTA to a final concentration of 100 mM before HPLC-based quantification of peptides.
(§2) The concentration of peptides in enzymatic reactions was quantified by detection of peaks eluted from the HPLC column using an in-line diode array detector. Chromatography was performed by running a gradient on a reversed-phase matrix (Source 5RPC, 4.6×150 mm, 5 μm) with 0.08% H3PO4 in water as mobile phase A and 40% acetonitrile in water and 0.08% H3PO4 as mobile phase B. The optical density at 280 nm was recorded inline for all eluting peaks, and peptide concentrations were calculated via calibration curves for each individual peptide.
(§3) The turnover rates for natural ACE2 substrates were determined by in vitro incubation with excess amounts of substrate followed by reversed-phase HPLC analysis. […] Each time point was analyzed in true triplicates and standard deviations are given in the graphs together with linear regressions of the measured values.

Ang 1–8 = test: In vitro kinetic assay, Ang 1–8 cleavage to Ang 1–7, HPLC quantification; conditions: ratio of k cat of the same enzyme for the two substrates
Protocol: as §1, §2
as §3, with “analysis. […] The resulting time courses are shown in the graphs.” for “analysis.”

B1: rmACE2: extracellular domain of murine ACE2 recombinantly expressed in CHO cells (protein)
chain: QSLTEENAKTFLNNFNQEAEDLSYQSSLASWNYNTNITEENAQKMSEAAAKWSAFYEEQSKTAQSFSLQEIQTPIIKRQLQALQQSGSSALSADKNKQLNTILNTMSTIYSTGKVCNPKNPQECLLLEPGLDEIMATSTDYNSRLWAWEGWRAEVGKQLRPLYEEYVVLKNEMARANNYNDYGDYWRGDYEAEGADGYNYNRNQLIEDVERTFAEIKPLYEHLHAYVRRKLMDTYPSYISPTGCLPAHLLGDMWGRFWTNLYPLTVPFAQKPNIDVTDAMMNQGWDAERIFQEAEKFFVSVGLPHMTQGFWANSMLTEPADGRKVVCHPTAWDLGHGDFRIKMCTKVTMDNFLTAHHEMGHIQYDMAYARQPFLLRNGANEGFHEAVGEIMSLSAATPKHLKSIGLLPSDFQEDSETEINFLLKQALTIVGTLPFTYMLEKWRWMVFRGEIPKEQWMKKWWEMKREIVGVVEPLPHDETYCDPASLFHVSNDYSFIRYYTRTIYQFQFQEALCQAAKYNGSLHKCDISNSTEAGQKLLKMLSLGNSEPWTKALENVVGARNMDVKPLLNYFQPLFDWLKEQNRNSFVGWNTEWSPYADQSIKVRISLKSALGANAYEWTNNEMFLFRSSVAYAMRKYFSIIKNQTVPFLEEDVRVSDLKPRVSFYFFVTSPQNVSDVIPRSEVEDAIRMSRGRINDVFGLNDNSLEFLGIHPTLEPPYQPPVT
Ang (1–7) concentration in plasma [1]: < 2 pg/mL
Ang 1–10-related turnover rate of rmACE2 as share of the rate for rhACE2 (Ang 1–10): 7%
k cat, Ang 1–10 ≥ Ang 1–9 (Ang 1–10; […] enzyme, 65 μM Ang 1–10, MES buffer pH 6.5, 37°C, HPLC, mean of substrate degradation and product formation rates related to enzyme concentration, triplicates): 0.0013 s⁻¹
turnover number for Ang 1–8 compared to Ang 1–10 (Ang 1–8): 492 fold
